Where no end group is shown, it is not given here. [ ]: non-standard residue; d: D form. Lys(Me3) = C[N+](C)(C)CCCC[C@H](N)C(=O)O; Arg(Me) = CNC(=N)NCCC[C@H](N)C(=O)O
T1: MLL4_(ePHD6)_(1475–1564) (human, UniProt O14686 1475-1564)
T1 chain: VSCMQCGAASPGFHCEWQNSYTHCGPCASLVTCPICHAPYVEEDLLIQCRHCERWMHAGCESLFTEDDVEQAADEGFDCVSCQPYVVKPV

T2: MLL3 ePHD6 I1100L (human, UniProt Q8NEZ4 1055-1144, I1100 of MLL3 to leucine)
T2 sequence: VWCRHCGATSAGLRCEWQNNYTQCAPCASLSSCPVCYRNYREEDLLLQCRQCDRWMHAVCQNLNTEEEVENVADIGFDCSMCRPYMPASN

T3: MLL3_(ePHD6)_(1055–1144) (human, UniProt Q8NEZ4 1055-1144)
T3 chain: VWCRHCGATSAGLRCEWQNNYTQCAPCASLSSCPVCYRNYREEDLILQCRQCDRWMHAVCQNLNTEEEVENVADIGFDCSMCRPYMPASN

T4: MLL3 ePHD6 E1097A (human, UniProt Q8NEZ4 1055-1144, E1097A)
T4 sequence: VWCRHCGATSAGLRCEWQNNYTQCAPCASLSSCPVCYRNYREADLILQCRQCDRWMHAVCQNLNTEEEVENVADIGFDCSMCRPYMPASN


Key:
Assay in all cases: ITC
MLL4_(ePHD6)_(1475–1564) = biological target: T1, MLL4_(ePHD6)_(1475–1564)
MLL3 ePHD6 I1100L = biological target: T2, MLL3 ePHD6 I1100L
MLL3_(ePHD6)_(1055–1144) = biological target: T3, MLL3_(ePHD6)_(1055–1144)
MLL3 ePHD6 E1097A = biological target: T4, MLL3 ePHD6 E1097A

Row | Binder | Kd (MLL4_(ePHD6)_(1475–1564)) [µM] | Kd (MLL3 ePHD6 I1100L) [µM] | Kd (MLL3_(ePHD6)_(1055–1144)) [µM] | Kd (MLL3 ePHD6 E1097A) [µM]
1 | GKGGA[Lys(Me3)]RHRKV [H4K16me3 peptide] | 14 | 34 | – | –
2 | GKGGAK[Arg(Me)]HRKV [histone H4 peptide monomethylated at R17] | 70 | – | 113 | –
3 | GKGGAKRHRKV [histone H4 peptide H4_(11–21)] | – | – | – | 65

Source: publication PMC6318328 (2019)
